Experimental data reported in publication PMC8565349 (Nucleic Acids Research, 2021).
Changes are numbered by the printed parent chain. Names and notes keep the numbering of the source.

T1: purified S. aureus β-clamp (ITC sample) (S. aureus, UniProt P0A024 1-377)
T1 sequence: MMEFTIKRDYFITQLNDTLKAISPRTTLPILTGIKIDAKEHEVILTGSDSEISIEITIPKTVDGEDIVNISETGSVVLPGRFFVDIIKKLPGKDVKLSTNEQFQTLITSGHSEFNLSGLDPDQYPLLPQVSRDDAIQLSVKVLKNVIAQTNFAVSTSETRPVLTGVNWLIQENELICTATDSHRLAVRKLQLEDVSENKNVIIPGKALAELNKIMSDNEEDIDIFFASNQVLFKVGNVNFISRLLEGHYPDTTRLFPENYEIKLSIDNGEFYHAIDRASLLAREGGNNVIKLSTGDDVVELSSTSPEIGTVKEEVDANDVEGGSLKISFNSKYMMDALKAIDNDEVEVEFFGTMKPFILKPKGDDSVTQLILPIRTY

B1: polyhistidine-tagged Gp168 of bacteriophage Twort (natural protein)
chain: MLFFKEKFYNELSYYRGGHKDLESMFELALEYIEKLEEEDEQQVTDYENAMEEELRDAVDVIESQLEIIKDIVR
B2: polyhistidine-tagged Gp168 Y14A (natural protein, bacteriophage Twort)
chain: B1 chain with Y14A

Legend:
[1] = biological target: T1, purified S. aureus β-clamp (ITC sample); experiment: ITC
SEC-MALS = biological target: the molecule itself; experiment: SEC-MALS
cryo-EM structure = biological target: the molecule itself; experiment: cryo-EM structure
SEC = biological target: the molecule itself; experiment: SEC

| Binder | Kd [1] | stoichiometry N [1] | stoichiometry N (SEC-MALS) | stoichiometry N (cryo-EM structure) | stoichiometry N (SEC) |
| --- | --- | --- | --- | --- | --- |
| B1 | 95 ± 16.7 nM | 0.16 ± 0.003 | 6 | 2 |  |
| B2 |  |  |  |  | 6 |
